Patent publication US20200338203A1 (Bicycle, published 2020)
Numbered stars: 1 amine (or outer) side, 2 acyl side, 3 side chain; on linkers, the order of the positions; unused ones are H or OH. Bridge positions count the residues as written; N and C are the ends. Square brackets hold non-standard residues; d marks the D form. Ends that are not written are not given here. 1Nal = N[C@@H](Cc1cccc2ccccc12)C(=O)O; TBMB = c1c(C[*:1])cc(C[*:3])cc1C[*:2]; Gly(cPent) = N[C@H](C(=O)O)C1CCCC1; hArg = N=C(N)NCCCC[C@H](N)C(=O)O; Tle = CC(C)(C)[C@H](N)C(=O)O; Aib = CC(C)(N)C(=O)O; βAla = NCCC(=O)O; Sar = CNCC(=O)O

biological target: T1, Human EphA2 (Ecto) (Human, UniProt P29317 24-537); assay: FP competition; competitor Compound 18
T1 construct: extracellular domain
T1 sequence (P29317 24-537): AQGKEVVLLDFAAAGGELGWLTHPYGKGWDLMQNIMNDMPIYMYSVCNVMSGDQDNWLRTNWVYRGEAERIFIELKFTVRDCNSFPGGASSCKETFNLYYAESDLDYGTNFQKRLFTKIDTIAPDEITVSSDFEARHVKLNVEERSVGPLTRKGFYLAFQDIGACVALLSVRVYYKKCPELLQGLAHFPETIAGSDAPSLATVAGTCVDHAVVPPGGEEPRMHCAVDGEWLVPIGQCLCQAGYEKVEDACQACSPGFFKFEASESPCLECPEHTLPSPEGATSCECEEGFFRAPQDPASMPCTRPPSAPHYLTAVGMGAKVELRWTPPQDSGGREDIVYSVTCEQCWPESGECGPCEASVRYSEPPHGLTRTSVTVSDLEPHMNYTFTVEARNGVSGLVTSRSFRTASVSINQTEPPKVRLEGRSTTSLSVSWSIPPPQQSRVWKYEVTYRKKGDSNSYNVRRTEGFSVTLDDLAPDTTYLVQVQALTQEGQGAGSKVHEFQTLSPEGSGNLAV

Which Ki does the source give for [βAla][Sar][Sar][Sar][Sar][Sar][Sar][Sar][Sar][Sar][Sar]H[dD]VPCP[1Nal]G[Aib]F[1Nal]CP[Tle]N[hArg][Aib][dD]C (linker 16-23-30 via TBMB) [Compound 259] here?
The Ki was 0.91 nM.

With [βAla][Sar][Sar][Sar][Sar][Sar][Sar][Sar][Sar][Sar][Sar]H[dD][Gly(cPent)]PCP[1Nal]G[Aib]F[1Nal]CP[Tle]NR[Aib]GC (linker 16-23-30 via TBMB) [Compound 278] as the binder, how does the Ki read?
The Ki was 0.46 nM.

Which Ki does the source give for [βAla][Sar][Sar][Sar][Sar][Sar][Sar][Sar][Sar][Sar][Sar]H[dD][Gly(cPent)]TCP[1Nal]G[Aib]F[1Nal]CP[Tle]N[hArg]P[dD]C (linker 16-23-30 via TBMB) [Compound 280] here?
Its Ki is 0.64 nM.

For {Ac-βAla}-[Sar][Sar][Sar][Sar][Sar][Sar][Sar][Sar][Sar][Sar]H[dD]VPC[Aib][1Nal]G[Aib]F[1Nal]CP[Tle]NR[Aib][dD]C (linker 15-22-29 via TBMB) [Compound 241], which Ki is on record?
The Ki was 2.98 nM.

For [βAla][Sar][Sar][Sar][Sar][Sar][Sar][Sar][Sar][Sar][Sar]H[dD]VPC[Aib][1Nal]GP[hArg][1Nal]CP[Tle]N[hArg]P[dD]C (linker 16-23-30 via TBMB) [Compound 244], which Ki is on record?
The Ki was 2.8 nM.

For Ac-[Sar][Sar]A[dD]VTCP[1Nal]G[Aib]F[1Nal]CP[Tle]N[hArg]P[dD]C (linker 7-14-21 via TBMB) [Compound 184], which Ki is on record?
The Ki was 1.19 nM.

{Ac-βAla}-[Sar][Sar][Sar][Sar][Sar][Sar][Sar][Sar][Sar][Sar]H[dD][Gly(cPent)]PCP[1Nal]G[Aib]F[1Nal]CP[Tle]N[hArg]P[dD]C (linker 15-22-29 via TBMB) [Compound 277] was tested. Which Ki did it give?
The Ki was 0.53 nM.

With [βAla][Sar][Sar][Sar][Sar][Sar][Sar][Sar][Sar][Sar][Sar]H[dD]VPC[Aib][1Nal]G[Aib]F[1Nal]CP[Tle]N[hArg][Aib][dD]C (linker 16-23-30 via TBMB) [Compound 238] as the binder, how does the Ki read?
The Ki was 2.83 nM.

How did the Ki turn out when Ac-[Sar][Sar]A[dH]DVPCP[1Nal]G[Aib]F[1Nal]CP[Tle]N[hArg]PGC (linker 8-15-22 via TBMB) [Compound 231] was run?
The Ki was 1.93 nM.

[βAla][Sar][Sar][Sar][Sar][Sar][Sar][Sar][Sar][Sar][Sar]H[dD]VPCP[1Nal]G[Aib][hArg][1Nal]CP[Tle]NR[Aib][dD]C (linker 16-23-30 via TBMB) [Compound 250] was tested. Which Ki did it give?
Its Ki is 1.48 nM.

For [βAla][Sar][Sar][Sar][Sar][Sar][Sar][Sar][Sar][Sar][Sar]H[dD]VPC[Aib][1Nal]G[Aib]F[1Nal]CP[Tle]NRPGC (linker 16-23-30 via TBMB) [Compound 234], which Ki is on record?
Its Ki is 3.94 nM.

With Ac-[Sar][Sar]H[dD]VTCP[1Nal]G[Aib]F[1Nal]CP[Tle]NR[Aib]GC (linker 7-14-21 via TBMB) [Compound 285] as the binder, how does the Ki read?
The Ki was 1.21 nM.

Which Ki does the source give for [βAla][Sar][Sar][Sar][Sar][Sar][Sar][Sar][Sar][Sar][Sar]H[dD]VPCP[1Nal]G[Aib]F[1Nal]CP[Tle]N[hArg]PGC (linker 16-23-30 via TBMB) [Compound 257] here?
Its Ki is 1.07 nM.

[βAla][Sar][Sar][Sar][Sar][Sar][Sar][Sar][Sar][Sar][Sar]H[dD]VPC[Aib][1Nal]G[Aib]F[1Nal]CP[Tle]NR[Aib]GC (linker 16-23-30 via TBMB) [Compound 239] was tested. Which Ki did it give?
Its Ki is 4.91 nM.

For Ac-[Sar][Sar]A[dH]DVPCP[1Nal]G[Aib]F[1Nal]CP[Tle]NR[Aib]GC (linker 8-15-22 via TBMB) [Compound 232], which Ki is on record?
Its Ki is 0.9 nM.

[βAla][Sar][Sar][Sar][Sar][Sar][Sar][Sar][Sar][Sar][Sar]H[dD]VPC[Aib][1Nal]G[Aib]F[1Nal]CP[Tle]N[hArg]PGC (linker 16-23-30 via TBMB) [Compound 235] was tested. Which Ki did it give?
Its Ki is 2.58 nM.

For [βAla][Sar][Sar][Sar][Sar][Sar][Sar][Sar][Sar][Sar][Sar]H[dD]VPC[Aib][1Nal]GP[hArg][1Nal]CP[Tle]NR[Aib]GC (linker 16-23-30 via TBMB) [Compound 243], which Ki is on record?
Its Ki is 2.83 nM.

How did the Ki turn out when [dD]VTCP[1Nal]G[Aib]F[1Nal]CP[Tle]NR[Aib]GC (linker 4-11-18 via TBMB) [Compound 186] was run?
The Ki was 1.34 nM.

For [βAla][Sar][Sar][Sar][Sar][Sar][Sar][Sar][Sar][Sar][Sar]H[dD]VPCP[1Nal]G[Aib][hArg][1Nal]CP[Tle]N[hArg]P[dD]C (linker 16-23-30 via TBMB) [Compound 251], which Ki is on record?
Its Ki is 1.93 nM.

[βAla][Sar][Sar][Sar][Sar][Sar][Sar][Sar][Sar][Sar][Sar]H[dD]VPC[Aib][1Nal]G[Aib]FWCP[Tle]N[hArg]P[dD]C (linker 16-23-30 via TBMB) [Compound 242] was tested. Which Ki did it give?
The Ki was 7.77 nM.

For [βAla][Sar][Sar][Sar][Sar][Sar][Sar][Sar][Sar][Sar][Sar]H[dD][Gly(cPent)]TCP[1Nal]G[Aib]F[1Nal]CP[Tle]NR[Aib]GC (linker 16-23-30 via TBMB) [Compound 279], which Ki is on record?
Its Ki is 0.59 nM.

How did the Ki turn out when [βAla][Sar][Sar][Sar][Sar][Sar][Sar][Sar][Sar][Sar][Sar]H[dD][Gly(cPent)]PC[Aib]WG[Aib]FWCP[Tle]NR[Aib][dD]C (linker 16-23-30 via TBMB) [Compound 275] was run?
The Ki was 15.9 nM.

With Ac-[Sar][Sar]H[dD]VPCP[1Nal]G[Aib]F[1Nal]CP[Tle]N[hArg]PGC (linker 7-14-21 via TBMB) [Compound 253] as the binder, how does the Ki read?
The Ki was 0.85 nM.

For [βAla][Sar][Sar][Sar][Sar][Sar][Sar][Sar][Sar][Sar][Sar]H[dD]VPC[Aib]WGP[hArg]WCP[Tle]N[hArg]P[dD]C (linker 16-23-30 via TBMB) [Compound 246], which Ki is on record?
The Ki was 31.4 nM.

Which Ki does the source give for [βAla][Sar][Sar][Sar][Sar][Sar][Sar][Sar][Sar][Sar][Sar]H[dD]VPCP[1Nal]G[Aib]FWCP[Tle]N[hArg]P[dD]C (linker 16-23-30 via TBMB) [Compound 265] here?
Its Ki is 1.55 nM.

How did the Ki turn out when {Ac-βAla}-[Sar][Sar][Sar][Sar][Sar][Sar][Sar][Sar][Sar][Sar]H[dD]VPCP[1Nal]G[Aib]F[1Nal]CP[Tle]NR[Aib][dD]C (linker 15-22-29 via TBMB) [Compound 260] was run?
The Ki was 0.75 nM.

{Ac-βAla}-[Sar][Sar][Sar][Sar][Sar][Sar][Sar][Sar][Sar][Sar]H[dD][Gly(cPent)]PC[Aib][1Nal]G[Aib]F[1Nal]CP[Tle]NR[Aib][dD]C (linker 15-22-29 via TBMB) [Compound 274] was tested. Which Ki did it give?
Its Ki is 2.28 nM.

Which Ki does the source give for {Ac-βAla}-[Sar][Sar][Sar][Sar][Sar][Sar][Sar][Sar][Sar][Sar]H[dD]VPC[Aib][1Nal]G[Aib]F[1Nal]CP[Tle]N[hArg]P[dD]C (linker 15-22-29 via TBMB) [Compound 237] here?
The Ki was 2.4 nM.

How did the Ki turn out when {Ac-βAla}-[Sar][Sar][Sar][Sar][Sar][Sar][Sar][Sar][Sar][Sar]H[dD]VPCP[1Nal]G[Aib]F[1Nal]CP[Tle]NR[Aib]GC (linker 15-22-29 via TBMB) [Compound 258] was run?
Its Ki is 0.54 nM.

For [βAla][Sar][Sar][Sar][Sar][Sar][Sar][Sar][Sar][Sar][Sar]H[dD]VPC[Aib]WGP[hArg]WCP[Tle]N[hArg]P[dD]C (linker 16-23-30 via TBMB) [Compound 247], which Ki is on record?
The Ki was 29.7 nM.

With [βAla][Sar][Sar][Sar][Sar][Sar][Sar][Sar][Sar][Sar][Sar]H[dD]VPC[dA][1Nal]G[Aib]F[1Nal]CP[Tle]N[hArg]P[dD]C (linker 16-23-30 via TBMB) [Compound 248] as the binder, how does the Ki read?
The Ki was 28.4 nM.

[βAla][Sar][Sar][Sar][Sar][Sar][Sar][Sar][Sar][Sar][Sar]H[dD]VPCP[1Nal]G[Aib][hArg][1Nal]CP[Tle]NR[Aib]GC (linker 16-23-30 via TBMB) [Compound 249] was tested. Which Ki did it give?
Its Ki is 1.38 nM.

Which Ki does the source give for [βAla][Sar][Sar][Sar][Sar][Sar][Sar][Sar][Sar][Sar][Sar]H[dD]VPCPWG[Aib]F[1Nal]CP[Tle]N[hArg]P[dD]C (linker 16-23-30 via TBMB) [Compound 269] here?
Its Ki is 1.11 nM.
